# Positions count from the first letter of the chain named. Names and notes keep the numbering of the source.
# B1: tPphA (Thermosynechococcus vestitus BP-1; R13N) (protein)
# chain: MDVAGLTDCGLINKSNQDAFYIDEKHQRFFIVADGMGGHAGGEEASRLAVDHIRQYLETHLEDLQHDPVTLLRQAFLAANHAIVEQQRQNSARADMGTTAVVILLDEKGDRAWCAHVGDSRIYRWRKDQLQQITSDHTWIAQAVQLGSLTIEQARQHPWRHVLSQCLGREDLSQIDIQPIDLEPGDRLLLCSDGLTEELTDDVISIYLSEPNVQKAAAALVDAAKTHGGRDNVTVVVISV
# B2: tPphA (Thermosynechococcus vestitus BP-1; R13G) (protein)
# chain: B1 chain with N13G
# B3: tPphA (Thermosynechococcus vestitus BP-1; R13H) (protein)
# chain: B1 chain with N13H
# B4: tPphA (Thermosynechococcus vestitus BP-1; R13C) (protein)
# chain: B1 chain with N13C
# B5: tPphA (Thermosynechococcus vestitus BP-1; R13Y) (protein)
# chain: B1 chain with N13Y
# B6: tPphA (Thermosynechococcus vestitus BP-1; R13P) (protein)
# chain: B1 chain with N13P
# B7: tPphA (Thermosynechococcus vestitus BP-1; R13S) (protein)
# chain: B1 chain with N13S
# B8: tPphA (Thermosynechococcus vestitus BP-1; R13Q) (protein)
# chain: B1 chain with N13Q
# B9: tPphA (Thermosynechococcus vestitus BP-1) (protein)
# chain: B1 chain with N13R
# B10: tPphA (Thermosynechococcus vestitus BP-1; R13A) (protein)
# chain: B1 chain with N13A
# B11: tPphA (Thermosynechococcus vestitus BP-1; R13K) (protein)
# chain: B1 chain with N13K
# Substrate: O=[N+]([O-])c1ccc(OP(=O)(O)O)cc1
# Assay: chromogenic phosphatase assay, A400
# Assay type: biochemical, Thermosynechococcus vestitus
# Details: 50 mM Tris-HCl pH 8.3, 50 mM NaCl, 1 mM DTT, 2 mM MnCl2, 30 °C, pNPP 0.1-10 mM
# Source text: chromogenic phosphatase assay, A400 on tPphA
Protein,Km,kcat,kcat/Km
B1,4.73 ± 0.53 mM,0.81 ± 0.04 s⁻¹,171 ± 8 M⁻¹ s⁻¹
B2,3.58 ± 0.22 mM,1.17 ± 0.03 s⁻¹,327 ± 8 M⁻¹ s⁻¹
B3,3.30 ± 0.17 mM,0.64 ± 0.01 s⁻¹,194 ± 3 M⁻¹ s⁻¹
B4,4.27 ± 0.39 mM,0.79 ± 0.01 s⁻¹,185 ± 2 M⁻¹ s⁻¹
B5,4.31 ± 0.28 mM,0.42 ± 0.01 s⁻¹,97 ± 2 M⁻¹ s⁻¹
B6,4.77 ± 0.17 mM,1.01 ± 0.02 s⁻¹,212 ± 4 M⁻¹ s⁻¹
B7,3.85 ± 0.32 mM,1.06 ± 0.04 s⁻¹,275 ± 10 M⁻¹ s⁻¹
B8,4.06 ± 0.21 mM,0.5 ± 0.01 s⁻¹,123 ± 2 M⁻¹ s⁻¹
B9,1.06 ± 0.05 mM,2.25 ± 0.1 s⁻¹,2120 ± 94 M⁻¹ s⁻¹
B10,5.11 ± 0.23 mM,1.56 ± 0.03 s⁻¹,305 ± 6 M⁻¹ s⁻¹
B11,1.39 ± 0.10 mM,1.22 ± 0.03 s⁻¹,878 ± 21 M⁻¹ s⁻¹
